Laboratory results taken from publication PMC12628392, “Reengineered Anti-CD4 Cys-diabody Variants for ^89Zr-immunoPET of CD4^+ T Cells in Immunocompetent Mice” (Molecular Imaging and Biology, 2025).

Assays:
[1] = target: mouse CD4 on splenocytes / CD4+ T cells (mouse (endogenous in splenocytes)) (UniProt P06332)
DFO-GK1.5 FR cDb (rat) = test: SEC; DFO-conjugated cDbs (inter-chain disulfide broken) compared with unconjugated cDbs; single peaks
recombinant mouse CD4 = target: T1, recombinant mouse CD4 (Mus musculus, strain , UniProt P06332); test: ELISA; saturation binding curves on immobilized recombinant mouse CD4; half-maximal binding (EC50), apparent affinity; conditions: both partners purified
T1 construct: CD4, mouse, recombinant; the supplementary information may tell source and limits; also called immobilized CD4 antigen; soluble murine CD4

[2] = target: mouse CD4 on splenocytes / CD4+ T cells (mouse (endogenous in splenocytes)) (UniProt P06332); remark: listed apart in the source
BSA = target: T2, BSA (Bos taurus, UniProt P02769); test: ELISA; control: BSA instead of CD4; data not shown; conditions: both partners purified
T2 construct: serum albumin, printed only as BSA; also called control (BSA)

DFO-GK1.5 N80D cDb (rat) = test: SEC; DFO-conjugated cDbs (inter-chain disulfide broken) compared with unconjugated cDbs; single peaks

T1 sequence (P06332 27-457): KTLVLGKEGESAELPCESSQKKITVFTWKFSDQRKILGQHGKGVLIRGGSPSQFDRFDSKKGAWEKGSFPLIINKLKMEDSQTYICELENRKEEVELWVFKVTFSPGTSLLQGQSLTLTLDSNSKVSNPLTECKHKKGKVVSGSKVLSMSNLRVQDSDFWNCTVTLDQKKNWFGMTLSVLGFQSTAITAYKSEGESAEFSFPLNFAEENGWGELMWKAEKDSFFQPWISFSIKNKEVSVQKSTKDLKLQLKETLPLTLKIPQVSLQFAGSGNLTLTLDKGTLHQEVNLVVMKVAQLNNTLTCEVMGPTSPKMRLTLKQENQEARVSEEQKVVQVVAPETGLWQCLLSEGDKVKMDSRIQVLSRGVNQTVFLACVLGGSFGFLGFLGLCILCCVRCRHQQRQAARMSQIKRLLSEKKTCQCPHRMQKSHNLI
Chain of mouse CD4 on splenocytes / CD4+ T cells (mouse (endogenous in splenocytes)) (P06332 27-457): as above
T2 sequence (P02769 25-607): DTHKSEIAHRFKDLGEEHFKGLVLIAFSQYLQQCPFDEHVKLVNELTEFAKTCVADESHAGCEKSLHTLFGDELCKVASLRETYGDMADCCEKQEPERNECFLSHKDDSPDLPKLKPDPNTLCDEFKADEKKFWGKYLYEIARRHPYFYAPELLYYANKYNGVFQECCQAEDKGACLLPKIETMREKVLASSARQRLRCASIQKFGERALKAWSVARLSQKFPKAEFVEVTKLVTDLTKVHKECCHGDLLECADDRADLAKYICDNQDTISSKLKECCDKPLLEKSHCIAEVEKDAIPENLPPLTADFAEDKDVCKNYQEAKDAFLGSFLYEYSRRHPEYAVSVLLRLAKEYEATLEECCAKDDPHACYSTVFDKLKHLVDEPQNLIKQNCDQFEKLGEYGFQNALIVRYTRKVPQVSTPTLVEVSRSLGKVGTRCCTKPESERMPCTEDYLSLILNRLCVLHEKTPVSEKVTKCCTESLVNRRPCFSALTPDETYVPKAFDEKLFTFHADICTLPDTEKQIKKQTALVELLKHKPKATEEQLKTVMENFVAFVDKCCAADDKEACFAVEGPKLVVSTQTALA

ex vivo biodistribution 22 h p.i. of ^89Zr-GK1.5 FR cDb (2 µg) in C57BL/6J mice: uptake in spleen [1] [%ID/g] | ex vivo biodistribution 22 h p.i. of ^89Zr-GK1.5 FR cDb: uptake in axillary, brachial lymph nodes [1] [%ID/g] | ex vivo biodistribution 22 h p.i. of ^89Zr-GK1.5 FR cDb: uptake in cervical lymph nodes [1] [%ID/g] | ex vivo biodistribution 22 h p.i. of ^89Zr-GK1.5 FR cDb: uptake in inguinal lymph nodes [1] [%ID/g] | stoichiometry N (DFO-GK1.5 FR cDb (rat)) | binding result (recombinant mouse CD4) | ex vivo biodistribution 22 h p.i. of ^89Zr-GK1.5 N80D cDb (2 µg) in C57BL/6J mice: uptake in spleen [1] [%ID/g] | ex vivo biodistribution 22 h p.i. of ^89Zr-GK1.5 N80D cDb, blocked by co-injection of 60 µg (3 mg/kg) non-radioactive GK1.5 N80D cDb: uptake in spleen [1] [%ID/g] | ex vivo biodistribution 22 h p.i. of ^89Zr-GK1.5 N80D cDb, blocked by co-injection of non-radioactive GK1.5 N80D cDb: uptake in axillary, brachial lymph nodes [1] [%ID/g] | ex vivo biodistribution 22 h p.i. of ^89Zr-GK1.5 N80D cDb, blocked by co-injection of non-radioactive GK1.5 N80D cDb: uptake in cervical lymph nodes [1] [%ID/g] | ex vivo biodistribution 22 h p.i. of ^89Zr-GK1.5 N80D cDb, blocked by co-injection of non-radioactive GK1.5 N80D cDb: uptake in inguinal lymph nodes [1] [%ID/g] | ex vivo biodistribution 22 h p.i. of ^89Zr-GK1.5 N80D cDb: uptake in axillary, brachial lymph nodes [1] [%ID/g] | ex vivo biodistribution 22 h p.i. of ^89Zr-GK1.5 N80D cDb: uptake in cervical lymph nodes [1] [%ID/g] | ex vivo biodistribution 22 h p.i. of ^89Zr-GK1.5 N80D cDb: uptake in inguinal lymph nodes [1] [%ID/g] | ex vivo biodistribution 22 h p.i. of ^89Zr-GK1.5 N80D cDb, blocked by co-injection of non-radioactive GK1.5 N80D cDb: uptake in spleen (value of the text, differs from Table 2) [2] [%ID/g] | binding result (BSA) | stoichiometry N (DFO-GK1.5 N80D cDb (rat)) | EC50 (recombinant mouse CD4) [nM] | Binder
20.7 | 10.5 | 16.7 | 13 | 2 | binds |  |  |  |  |  |  |  |  |  |  |  |  | GK1.5 FR cDb (scFv, V domains shown, as the VH of m1: CDRs of GK1.5 on the VH framework of YTS169; five amino acid linker, printed as G4S (VH-G4S-VL-Cys-His); C-terminal cysteine residue for site-specific conjugation, before the His6 tag; cys-diabody: covalent homodimer of the scFv; parent of m1; also called CDR-grafted cys-diabody; glycosylated GK1.5 FR cDb; source: production and purification told in the supplementary information) VH: EVKLQESGGGLVQPGRSLKLSCAASGFNIRRTYMHWVRQAPGKGLEWIGRIDPANGNTIYGEKFKSKFTISRDNAQNTLYLQMSKLGSEDTAIYYCAIGVQYLDYWGQGVMVTVSS VL: DIVLTQSPAMAMSPGERITISCRATESVSTLIHWYQQKPGQQPKLLIYLTSHLDSGVPARFSGSGSGTDFTLTIDPVEANDTATYYCQQTWNDPWTFGGGTKLELK
 |  |  |  |  |  | 48.5 | 9.7 | 16.6 | 20 | 18.3 | 43.5 | 66.2 | 44.3 | 8.1 | no binding | 2 | 3 | GK1.5 N80D cDb (scFv, V domains shown, VH: CDRs of GK1.5 (contact definition) on the VH framework of YTS169; five amino acid linker, printed as G4S (VH-G4S-VL-Cys-His); VL of GK1.5 FR cDb (CDRs of GK1.5 on the VL framework of YTS169) with N80D (L81 in Kabat numbering); C-terminal cysteine residue for site-specific conjugation, before the His6 tag; cys-diabody: covalent homodimer of the scFv (MW 52.2 kDa), inter-chain disulfide between …) VH: EVKLQESGGGLVQPGRSLKLSCAASGFNIRRTYMHWVRQAPGKGLEWIGRIDPANGNTIYGEKFKSKFTISRDNAQNTLYLQMSKLGSEDTAIYYCAIGVQYLDYWGQGVMVTVSS VL: DIVLTQSPAMAMSPGERITISCRATESVSTLIHWYQQKPGQQPKLLIYLTSHLDSGVPARFSGSGSGTDFTLTIDPVEADDTATYYCQQTWNDPWTFGGGTKLELK
 |  |  |  |  |  |  |  |  |  |  |  |  |  |  |  |  | 2.25 | Parental anti-mouse CD4 antibody GK1.5 (rat IgG2b,k) (antibody, V domains shown, VH of hybridoma GK1.5; constant region of rat IgG2b heavy chain; VL of hybridoma GK1.5; constant region of rat kappa light chain; rat IgG2b, kappa; also called GK1.5 IgG; parental full-length GK1.5 IgG; source: bought: BioLegend Cat# 100401; copies: 2 + 2) VH: EVQLQQSGAELGKPGTSVKLSCKVSDYNIRRTYMHWVNQRPGKGLEWIGRIDPANGNTIYGEKFKSKATLTADTSSNTAYMQLSQLKSDDTAFYYCAIGVQYLDYWGQGVMVTVSS VL: DIVLTQSPASLAVSPGERVTISCRATESVSTLIHWFQQRPGQQPKLLIYLTSHLDSGVPARFSGSGSGTDFTLTIDPVEADDTATYYCQQTWNDPWTFGGGTKLELK
